Test [1] deals with T1, human CD3 on T-cell lines (CD3-expressing Jurkat cells; HUT78 cells) (human, UniProt P07766 23-207).
T1 construct: On cells it stands in the CD3/TCR complex
The experiment in a line: flow cytometry, HUT78 cells. (In general: A flow cytometer gives signals particle by particle.)

Test [2] has as its target T2, human CD3 epsilon (Acro Cat #CDE-H5223) (human, UniProt P07766 23-126).
T2 construct: Bought recombinant protein; also called rhCD3E
Briefly: SPR (Biacore), antibody captured, human CD3 epsilon analyte. The method, then: (§1) Anti-Fab or anti-Fc polyclonal antibodies were immobilized onto a CM5 chip (GE Life Sciences) using amine coupling chemistry (from Amine Coupling Kit, GE Life Sciences). The immobilization steps were carried out at a flow rate of 25 μl/min in 1×HBS-EP+ buffer (GE Life Sciences; 10× Stock diluted before use). The sensor surfaces were activated for 7 min with a mixture of NHS (0.05 M) and EDC (0.2 M). The Anti-Fab or Anti-Fc antibodies were injected over all 4 flow cells at a concentration of 25 μg/mL in 10 mM sodium acetate, pH 4.5, for 7 min. Ethanolamine (1 M, pH 8.5) was injected for 7 min to block any remaining activated groups.
(§2) Off-rate and kinetic binding experiments were performed at 25° C. using 1×HBS-EP+ buffer. Test and control antibodies were injected over the anti-Fab or anti-Fc surface at concentrations of 5-10 μg/mL for 12 seconds at a flow rate of 10 μL/min on flow cells 2, 3 and 4, followed by a buffer wash for 30 seconds at the same flow rate. […] After capturing ligand (antibody) on the anti-Fc or anti-Fab surface, the analyte (human CD3 epsilon, Acro Cat #CDE-H5223) was bound for 180 seconds, followed by a 600 second dissociation phase at a flow rate of 50 μL/min. Between each ligand capture and analyte binding cycle, regeneration was carried out using two injections of 10 mM Glycine pH 2.0 for 30 seconds at 30 μL/min, followed by a 30 second buffer wash step.
(§3) The data was fit with the Biacore T200 Evaluation software, using a 1-1 Langmuir binding model. KD (affinity, nM) was determined as a ratio of the kinetic rate constants calculated from the fits of the association and dissociation phases.
(In general: In SPR one partner is held on a chip, and binding of the other changes the refractive index at the surface.)

The target in test [3] is T1, human CD3 on T-cell lines …. The experiment in a line: flow cytometry, HUT78 cells. The source holds these as a separate data set.
For test [4], the target named is T2, human CD3 epsilon (Acro Cat #CDE-H5223). The experiment in a line: SPR (Biacore), antibody captured, human CD3 epsilon analyte. The method, then: as §1, §2, §3
The source holds these as a separate data set.

Residue numbers refer to the chain shown, from its start. Names may count otherwise. Like-named read-outs stand apart in the source and are kept apart here.

T1 sequence (P07766 23-207 limits assumed): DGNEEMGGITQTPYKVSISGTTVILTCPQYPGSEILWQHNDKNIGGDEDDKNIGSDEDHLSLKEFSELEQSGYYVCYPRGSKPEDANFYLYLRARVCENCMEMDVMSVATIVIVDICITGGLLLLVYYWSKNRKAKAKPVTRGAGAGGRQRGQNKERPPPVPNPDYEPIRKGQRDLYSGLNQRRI
T2 sequence (P07766 23-126 limits assumed): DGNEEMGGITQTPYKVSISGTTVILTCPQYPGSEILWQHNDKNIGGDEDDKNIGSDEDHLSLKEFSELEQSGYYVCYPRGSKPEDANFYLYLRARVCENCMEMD

B1: 2037-B10_Hc-A59D (antibody, human IgG1, lambda, V domains shown)
VH: EVQLVESGGGLVKPGGSLRLSCAASGFTFNKYAMNWVRQAPGKGLEWVARIRTKYNNYDTYYADSVKDRFTISRDDSKNTAYLQMNSLKTEDTAVYYCVRHGNFGNSYISYWAYWGQGTPVTVSS
VL: QTVVTQEPSLTVSPGGTVTLTCGSSTGAVTSGYYPNWLQQKPGQAPRGLIGGTKFLAPGTPARFSGSLLGGKAALTLSGVQPEDEAEYYCALWYSNRWVFGGGTQLTVTG
notes: human IgG1, lambda; also called SRP 2037 A59D; 2037-B10_VH-A59D
One may read the Kd as the free concentration of one partner at which half of the binding sites on the other are occupied at equilibrium, for simple one-to-one binding. A high value points to weaker binding. For orientation: koff means the first-order rate constant of dissociation. Read a low koff as a long-lived complex. One may read the kon as the rate constant with which the complex forms. A lower kon goes with slower complex formation. Consider B1, for which, in test [1], the “Bmax (MFI)” value is 742 MFI and the dissociation constant (Kd) turned out to be 0.07 nM. In test [2], binding was put at a Kd of 0.476 nM, the koff turned out to be 0.000251 s⁻¹ and the on-rate (kon) worked out at 527000 M⁻¹ s⁻¹.

B2: SRP 2037-B10 F104D/R97D (antibody, human IgG1, lambda, V domains shown)
VH: B1 VH with D59A, F104D
VL: B1 VL with R97D
notes: human IgG1, lambda
On to B2, for which, in test [3], the “HUT78 Bmax” value stood at 2710 and the affinity, expressed as Kd, was 126 nM. Besides, in test [4], the Kd turned out to be 6.99 nM, the koff was 0.000115 s⁻¹ and the kon was 16400 M⁻¹ s⁻¹.

B3: SRP 2037-B10 S107D/R97D (antibody, human IgG1, lambda, V domains shown)
VH: B1 VH with D59A, S107D
VL: B1 VL with R97D
notes: human IgG1, lambda
In the case of B3, in test [3], the “HUT78 Bmax” value is 1800 and the equilibrium dissociation constant (Kd) stood at 38.1 nM. In test [4], this molecule returned a dissociation constant Kd of 15.8 nM, a koff of 0.000474 s⁻¹ and a kon of 30100 M⁻¹ s⁻¹.

B4: SRP 2037-B10 Y55D/LC5 (antibody, human IgG1, kappa, V domains shown)
VH: B1 VH with Y55D, D59A
VL: DTQVTQSPSLSASVGDRVTITCGSSTGAVTSGYYPNWLQQKPGQAPRGLIGGTKFLAPGVPSRFSGSGSGTDFTLTISSLQPEDFATYYCALWYSNRWVFGGGTKVEIKR
notes: human IgG1, kappa
As to B4, in test [3], the “HUT78 Bmax” value came to 442 and the Kd worked out at 174 nM.

B5: SRP 2037-B10 S107D/LC5 (antibody, human IgG1, kappa, V domains shown)
VH: B1 VH with D59A, S107D
VL: B4 VL
notes: human IgG1, kappa
Consider B5, for which, in test [3], the “HUT78 Bmax” value is 404 and the Kd was found to be 86.4 nM.

B6: 2037-B10_Lc-N96D (antibody, V domains shown)
VH: not shown
VL: B1 VL with N96D
notes: human IgG1, lambda; also called SRP 2037 N96D; 2037-B10 VL-N96D
B6: in test [1], the “Bmax (MFI)” value stood at 1220 MFI and binding was characterised by a dissociation constant (Kd) of 0.43 nM. In test [2], this molecule returned a Kd of 0.596 nM, a koff of 0.000265 s⁻¹ and an association rate constant (kon) of 445000 M⁻¹ s⁻¹.

B7: 2037-B10_Hc-N30D (antibody, human IgG1, lambda, V domains shown)
VH: B1 VH with N30D, D59A
VL: B1 VL
notes: human IgG1, lambda; also called SRP 2037 N30D; 2037-B10_VH-N30D
With B7, in test [1], the “Bmax (MFI)” value came out at 989 MFI and the affinity, expressed as Kd, was 0.22 nM. For the same molecule, in test [2], the Kd amounted to 0.36 nM, the koff is 0.000189 s⁻¹ and the on-rate (kon) was determined as 524000 M⁻¹ s⁻¹.

B8: 2037-B10_Hc-N106D (antibody, human IgG1, lambda, V domains shown)
VH: B1 VH with D59A, N106D
VL: B1 VL
notes: human IgG1, lambda; also called SRP 2037 N106D; 2037-B10_VH-N106D
On to B8, for which, in test [1], the “Bmax (MFI)” value is 1010 MFI and binding was characterised by a dissociation constant (Kd) of 0.26 nM. In test [2], this molecule displayed a dissociation constant Kd of 0.841 nM, a koff of 0.000277 s⁻¹ and a kon of 329000 M⁻¹ s⁻¹.

B9: 2037-B10_Hc-F27D (antibody, human IgG1, lambda, V domains shown)
VH: B1 VH with F27D, D59A
VL: B1 VL
notes: human IgG1, lambda; also called SRP 2037 F27D; 2037-B10_VH-F27D
As for B9, in test [1], the “Bmax (MFI)” value was found to be 1360 MFI and the affinity, expressed as Kd, was 1.27 nM. In test [2], this molecule gave a Kd of 1.07 nM, a koff of 0.000278 s⁻¹ and a kon of 259000 M⁻¹ s⁻¹.

B10: SRP 2037-B10 F104D/LC5 (antibody, human IgG1, kappa, V domains shown)
VH: B1 VH with D59A, F104D
VL: B4 VL
notes: human IgG1, kappa
B10: in test [3], the “HUT78 Bmax” value stood at 523 and the dissociation constant (Kd) came out at 226 nM.

B11: 2037-B10_Lc-Y94D (antibody, V domains shown)
VH: not shown
VL: B1 VL with Y94D
notes: human IgG1, lambda; also called SRP 2037 Y94D; 2037-B10 VL-Y94D
As to B11, in test [1], the “Bmax (MFI)” value was 1600 MFI and the Kd was found to be 0.7 nM.

B12: SRP 2037-B10 F29D/R97D (antibody, human IgG1, lambda, V domains shown)
VH: B1 VH with F29D, D59A
VL: B1 VL with R97D
notes: human IgG1, lambda
For B12, in test [4], the equilibrium dissociation constant (Kd) came out at 185 nM, the off-rate (koff) was determined as 0.000761 s⁻¹ and the on-rate constant (kon) is 4110 M⁻¹ s⁻¹.

B13: 2037-B10_Hc-K54D (antibody, human IgG1, lambda, V domains shown)
VH: B1 VH with K54D, D59A
VL: B1 VL
notes: human IgG1, lambda; also called SRP 2037 K54D; 2037-B10_VH-K54D
Consider B13, for which, in test [1], the “Bmax (MFI)” value was found to be 857 MFI and the Kd turned out to be 0.37 nM. In test [2], this molecule yielded an equilibrium dissociation constant (Kd) of 0.856 nM, a koff of 0.000289 s⁻¹ and a kon of 337000 M⁻¹ s⁻¹.

B14: 2037-B10_Lc-S95D (antibody, V domains shown)
VH: not shown
VL: B1 VL with S95D
notes: human IgG1, lambda; also called SRP 2037 S95D; 2037-B10 VL-S95D
In the case of B14, in test [1], the “Bmax (MFI)” value was determined as 896 MFI and the equilibrium dissociation constant (Kd) was 0.29 nM.

B15: 2037-B10_Lc-W93D (antibody, V domains shown)
VH: not shown
VL: B1 VL with W93D
notes: human IgG1, lambda; also called SRP 2037 W93D; 2037-B10 VL-W93D
Take B15: in test [1], the “Bmax (MFI)” value is 88 MFI and the dissociation constant (Kd) is 21.9 nM. Further, in test [2], the kon came to 7720 M⁻¹ s⁻¹.

B16: 2037-B10_Hc-R52D (antibody, human IgG1, lambda, V domains shown)
VH: B1 VH with R52D, D59A
VL: B1 VL
notes: human IgG1, lambda; also called SRP 2037 R52D; 2037-B10_VH-R52D
As for B16, in test [1], the “Bmax (MFI)” value was 142 MFI and the Kd amounted to 14.1 nM.

B17: 2037-B10_Hc-K31D (antibody, human IgG1, lambda, V domains shown)
VH: B1 VH with K31D, D59A
VL: B1 VL
notes: human IgG1, lambda; also called SRP 2037 K31D; 2037-B10_VH-K31D
Turning to B17, in test [1], the “Bmax (MFI)” value amounted to 1060 MFI and binding was put at a Kd of 0.94 nM. In test [2], this molecule came in with a Kd of 1.39 nM, a koff of 0.000377 s⁻¹ and a kon of 271000 M⁻¹ s⁻¹.

B18: 2037-B10_Hc-N56D (antibody, human IgG1, lambda, V domains shown)
VH: B1 VH with N56D, D59A
VL: B1 VL
notes: human IgG1, lambda; also called SRP 2037 N56D; 2037-B10_VH-N56D
With B18, in test [1], the “Bmax (MFI)” value is 216 MFI and the Kd turned out to be 27.4 nM. In test [2], the Kd amounted to 5.37 nM, the off-rate (koff) is 0.000668 s⁻¹ and the on-rate constant (kon) came to 124000 M⁻¹ s⁻¹.

B19: 2037-B10_Hc-Y108D (antibody, human IgG1, lambda, V domains shown)
VH: B1 VH with D59A, Y108D
VL: B1 VL
notes: human IgG1, lambda; also called 2037-B10_VH-Y108D
B19: in test [1], the “Bmax (MFI)” value was found to be 820 MFI and binding was put at a Kd of 0.12 nM. In test [2], this molecule showed a Kd of 0.239 nM, a koff of 0.00019 s⁻¹ and a kon of 796000 M⁻¹ s⁻¹.

B20: 2037-B10_Hc-R50D (antibody, human IgG1, lambda, V domains shown)
VH: B1 VH with R50D, D59A
VL: B1 VL
notes: human IgG1, lambda; also called SRP 2037 R50D; 2037-B10_VH-R50D
With B20, in test [1], the “Bmax (MFI)” value is 119 MFI and the affinity, expressed as Kd, was 6.61 nM.

B21: 2037-B10_Hc-G105D (antibody, human IgG1, lambda, V domains shown)
VH: B1 VH with D59A, G105D
VL: B1 VL
notes: human IgG1, lambda; also called SRP 2037 G105D; 2037-B10_VH-G105D
As to B21, in test [1], the “Bmax (MFI)” value amounted to 1010 MFI and binding was characterised by a dissociation constant (Kd) of 0.36 nM. In test [2], this molecule showed a Kd of 0.767 nM, a koff of 0.000207 s⁻¹ and an on-rate constant (kon) of 270000 M⁻¹ s⁻¹.

B22: 2037-B10_Hc-N103D (antibody, human IgG1, lambda, V domains shown)
VH: B1 VH with D59A, N103D
VL: B1 VL
notes: human IgG1, lambda; also called SRP 2037 N103D; 2037-B10_VH-N103D
Take B22: in test [1], the “Bmax (MFI)” value was found to be 166 MFI and binding was put at a Kd of 28.6 nM. Besides, in test [2], the affinity, expressed as Kd, was 85 nM; the off-rate (koff) was 0.000583 s⁻¹; the on-rate (kon) came to 6860 M⁻¹ s⁻¹.

B23: SRP 2037-B10 Y61D/LC5 (antibody, human IgG1, kappa, V domains shown)
VH: B1 VH with D59A, Y61D
VL: B4 VL
notes: human IgG1, kappa
For the molecule B23, in test [3], the “HUT78 Bmax” value was determined as 772 and the affinity, expressed as Kd, was 312 nM.

B24: 2037-B10_Hc-A33D (antibody, human IgG1, V domains shown)
VH: B1 VH with A33D, D59A
VL: B1 VL
notes: human IgG1, lambda; also called SRP 2037 A33D; 2037-B10_VH-A33D
On to B24, for which, in test [1], the “Bmax (MFI)” value was 103 MFI and the dissociation constant Kd stood at 8.57 nM.

The values are drawn from US20240124585A1 (SUTRO BIOPHARMA, published 2024).
